B1: C8orf76 (parent)
chain: KLAEAYLNLGPALSAALASSQKQH

Variants of: B1
Test: protein stability index of a GFP-peptide fusion (GPS, HEK-293T) (PSI 1-6); higher = more stable
Details: c terminus: a fixed tail appended
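Note: lentivirally expressed fusions sorted by FACS into six bins by GFP to DsRed ratio, PSI derived from sequencing read proportions per bin multiplied by bin number.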

Variant	protein stability index
KLAEAYLNLGPALNAALASSQKQH [S14N]	2.86
KLAEAYLNLGPALTAALASSQKQH [S14T]	3.75
KLAEAYLNLGPALRAALASSQKQH [S14R]	2.06
KLAEAYLNLGPALSAALANSQKQH [S19N]	3
KLAEAYLNLGPALSAALAESQKQH [S19E]	2.95
KLAEAYLNLGPALSAALAASQKQH [S19A]	4.1
KLAEAYLNLGPALSAALALSQKQH [S19L]	2.35
KLAEAYLNLGPALSAALAFSQKQH [S19F]	2.5
KLAEAYLNLGPALSAALAMSQKQH [S19M]	3.29
KLAEAYLNLGPALSAALAHSQKQH [S19H]	3.15
KLAEAYLNLGPALSAALAGSQKQH [S19G]	3.14
KLAEAYLNLGPALSAALAISQKQH [S19I]	3.22
KLAEAYLNLGPALSAALAYSQKQH [S19Y]	2.84
KLAEAYLNLGPALSAALAVSQKQH [S19V]	2.64
KLAEAYLNLGPALSAALATSQKQH [S19T]	3.75
KLAEAYLNLGPALSAALAKSQKQH [S19K]	2.51
KLAEAYLNLGPALSAALARSQKQH [S19R]	2.74
KLAEAYLNLGPALSAALAQSQKQH [S19Q]	2.43
KLAEAYLNLGPALSAALAPSQKQH [S19P]	2.08
KLAEAYLNLGPALSAALADSQKQH [S19D]	1.89
KLAEAYLNLGPALSAALACSQKQH [S19C]	2.07
KLAEAYLNLGPALSAALAWSQKQH [S19W]	2.57
KLAEAYLNLGPALSVALASSQKQH [A15V]	2.31
KLAEAYLNLGPALSGALASSQKQH [A15G]	2.03

Variant	protein stability index
KLAEAYLNLGPALSLALASSQKQH [A15L]	3.15
KLAEAYLNLGPALSQALASSQKQH [A15Q]	2.98
KLAEAYLNLGPALSWALASSQKQH [A15W]	2.71
KLAEAYLNLGPALSHALASSQKQH [A15H]	2.63
KLAEAYLNLGPALSRALASSQKQH [A15R]	2.34
KLAEAYLNLGPALSNALASSQKQH [A15N]	1.81
KLAEAYLNLGPALSEALASSQKQH [A15E]	2.26
KLAEAYLNLGPALSFALASSQKQH [A15F]	2.78
KLAEAYLNLGPALSYALASSQKQH [A15Y]	2.09
KLAEAYLNLGPALSSALASSQKQH [A15S]	1.54
KLAEAYLNLGPALSTALASSQKQH [A15T]	2.15
KLAEAYLNLGPALSMALASSQKQH [A15M]	2.94
KLAEAYLNLGPALSDALASSQKQH [A15D]	2.32
KLAEAYLNLGPALSIALASSQKQH [A15I]	3.79
KLAEAYLNLGPALSKALASSQKQH [A15K]	2.27
KLAEAYLNLGPALSCALASSQKQH [A15C]	2.3
KLAEAYLNLGPALSPALASSQKQH [A15P]	2.36
KLAEAYLNLGPALSALLASSQKQH [A16L]	3.68
KLAEAYLNLGPALSATLASSQKQH [A16T]	2.12
KLAEAYLNLGPALSAQLASSQKQH [A16Q]	2.38
KLAEAYLNLGPALSARLASSQKQH [A16R]	2.43
KLAEAYLNLGPALSAPLASSQKQH [A16P]	2.39
KLAEAYLNLGPALSAGLASSQKQH [A16G]	2.4
KLAEAYLNLGPALSAELASSQKQH [A16E]	1.82

Variant	protein stability index
KLAEAYLNLGPALSAYLASSQKQH [A16Y]	2.95
KLAEAYLNLGPALSAKLASSQKQH [A16K]	1.97
KLAEAYLNLGPALSAHLASSQKQH [A16H]	2.86
KLAEAYLNLGPALSASLASSQKQH [A16S]	2.41
KLAEAYLNLGPALSAILASSQKQH [A16I]	4.08
KLAEAYLNLGPALSAFLASSQKQH [A16F]	3.07
KLAEAYLNLGPALSAWLASSQKQH [A16W]	1.09
KLAEAYLNLGPALSADLASSQKQH [A16D]	2.18
KLAEAYLNLGPALSAVLASSQKQH [A16V]	2.05
KLAEAYLNLGPALSANLASSQKQH [A16N]	1.95
KLAEAYLNLGPALSAACASSQKQH [L17C]	1.6
KLAEAYLNLGPALSAAYASSQKQH [L17Y]	1.97
KLAEAYLNLGPALSAAFASSQKQH [L17F]	2.21
KLAEAYLNLGPALSAAVASSQKQH [L17V]	1.59
KLAEAYLNLGPALSAAIASSQKQH [L17I]	2.16
KLAEAYLNLGPALSAAMASSQKQH [L17M]	2.69
KLAEAYLNLGPALSAAGASSQKQH [L17G]	1.95
KLAEAYLNLGPALSAANASSQKQH [L17N]	2.56
KLAEAYLNLGPALSAAEASSQKQH [L17E]	2.26
KLAEAYLNLGPALSAAAASSQKQH [L17A]	1.65
KLAEAYLNLGPALSAARASSQKQH [L17R]	2.45
KLAEAYLNLGPALSAADASSQKQH [L17D]	2.94
KLAEAYLNLGPALSAAHASSQKQH [L17H]	2.17
KLAEAYLNLGPALSAAQASSQKQH [L17Q]	2.17

Variant	protein stability index
KLAEAYLNLGPALSAAPASSQKQH [L17P]	2.76
KLAEAYLNLGPALSAAKASSQKQH [L17K]	1.81
KLAEAYLNLGPALSAATASSQKQH [L17T]	1.95
KLAEAYLNLGPALSAASASSQKQH [L17S]	2.03
KLAEAYLNLGPALSAALASSTKQH [Q21T]	3.01
KLAEAYLNLGPALSAALASSGKQH [Q21G]	3.38
KLAEAYLNLGPALSAALASSRKQH [Q21R]	3.07
KLAEAYLNLGPALSAALASSEKQH [Q21E]	1.78
KLAEAYLNLGPALSAALASSDKQH [Q21D]	1.97
KLAEAYLNLGPALSAALASSKKQH [Q21K]	2.1
KLAEAYLNLGPALSAALASSPKQH [Q21P]	2.18
KLAEAYLNLGPALSAALASSYKQH [Q21Y]	4.14
KLAEAYLNLGPALSAALASSLKQH [Q21L]	1.8
KLAEAYLNLGPALSAALASSWKQH [Q21W]	2.31
KLAEAYLNLGPALSAALASSIKQH [Q21I]	2.71
KLAEAYLNLGPALSAALASSAKQH [Q21A]	4.28
KLAEAYLNLGPALSAALASSNKQH [Q21N]	3.31
KLAEAYLNLGPALSAALASSMKQH [Q21M]	3.44
KLAEAYLNLGPALSAALASSVKQH [Q21V]	2.99
KLAEAYLNLGPALSAALASSFKQH [Q21F]	2.97
KLAEAYLNLGPALSAALASSSKQH [Q21S]	2.38
KLAEAYLNLGPALSAALASSHKQH [Q21H]	2.42

— the supplement of paper PMC10567573
